{"source": "paper PMC10036536", "about": "“Optimizing human α-galactosidase for treatment of Fabry disease” (Scientific Reports, 2023)", "proteins": {"B1": {"name": "recombinant human α-galactosidase A (GLA) (enzyme, UniProt P06280 32-429, looked up)", "chain": "LDNGLARTPTMGWLHWERFMCNLDCQEEPDSCISEKLFMEMAELMVSEGWKDAGYEYLCIDDCWMAPQRDSEGRLQADPQRFPHGIRQLANYVHSKGLKLGIYADVGNKTCAGFPGSFGYYDIDAQTFADWGVDLLKFDGCYCDSLENLADGYKHMSLALNRTGRSIVYSCEWPLYMWPFQKPNYTEIRQYCNHWRNFADIDDSWKSIKSILDWTSFNQERIVDVAGPGGWNDPDMLVIGNFGLSWNQQVTQMALWAIMAAPLFMSNDLRHISPQAKALLQDKDVIAINQDPLGKQGYQLRQGDNFEVWERPLSGLAWAVAMINRQEIGGPRSYTIAVASLGKGVACNPACFITQLLPVKRKLGFYEWTSRLRSHINPTGTVLLQLENTMQMSLKDLL", "notes": "α-galactosidase A, human, UniProt P06280; The methods say fractions of the homodimer were pooled; also called rhGLA"}}, "biological_target": "the molecule itself", "assay": "SEC; protein eluted from concanavalin A-Sepharose; Superdex 200 PG 26/60, 2.4 mM Na2HPO4, 17.6 mM NaH2PO4 (pH 6.0), 150 mM NaCl, 0.02% Tween-20", "data": [{"protein": "B1", "values": [{"measurement": "stoichiometry N", "result": 2}]}]}
